Source: US20190185581A1 (University of California, published 2019)
Blank lines part the entries; values can stand above or below the binder they belong to.

B1: Fab 3A2 (Fab, V domains shown)
VH: EVQLVESGGGLVQPGGSLRLSCAASGFNLSSSSMHWVRQAPGKGLEWVASIYPSYSYTYYADSVKGRFTISADTSKNTAYLQMNSLRAEDTAVYYCARVKLQKDKSHQWIRNLVATPYGRYVMDYWGQGTLVTVSS
VL: DIQMTQSPSSLSASVGDRVTITCRASQSVSSAVAWYQQKPGKAPKLLIYSASSLYSGVPSRFSGSRSGTDFTLTISSLQPEDFATYYCQQYGYPITFGQGTKVEIKR
notes: also called R3C9; not shown: His tag at the C-terminus of the heavy chain
B4: MMP-14 catalytic domain mutant F260A (enzyme)
chain: not shown
notes: also called F260A MMP-14 mutant

Columns and labels:
[1] = molecular target: T1, catalytic domain of MMP-14 (cdMMP-14) (human, UniProt P50281 114-287, limits assumed, biotinylated (Sulfo-NHS-LC-Biotin) where immobilised via streptavidin); assay: surface plasmon resonance (Biacore), MMP-14 immobilised on the chip, Fab 3A2 injected at 20 nM; table beside the sensorgrams
T1 construct: also called matrix metalloproteinase-14 catalytic domain; wild-type MMP-14

[2] = molecular target: B4; assay: competitive ELISA: 10 nM Fab 3A2 incubated with the mutant, then captured on immobilised wild-type MMP-14
Procedure: (§1) Bound Fabs were detected using the anti-Fab-HRP conjugate. The half-maximal effective concentration (EC₅₀) was calculated from a four-parametric logistic curve-fitting analysis.

[3] = molecular target: T1, catalytic domain of MMP-14 (cdMMP-14); assay: surface plasmon resonance (Biacore), MMP-14 immobilised on the chip, Fab 3A2 injected at 15 nM; table beside the sensorgrams
[4] = molecular target: T1, catalytic domain of MMP-14 (cdMMP-14); assay: cell-based or functional assay
[5] = molecular target: T1, catalytic domain of MMP-14 (cdMMP-14); assay: summary sentence on the Examples; method not given
[6] = molecular target: T1, catalytic domain of MMP-14 (cdMMP-14); assay: cell-based or functional assay; remark: listed apart in the source
[7] = molecular target: T1, catalytic domain of MMP-14 (cdMMP-14); assay: surface plasmon resonance (Biacore), MMP-14 immobilised on the chip, Fab 3A2 injected at 10 nM; table beside the sensorgrams
[8] = molecular target: T1, catalytic domain of MMP-14 (cdMMP-14); assay: SPR (Biacore), MMP-14 amine-coupled to the chip, Fab as analyte, 25 °C
[9] = molecular target: T1, catalytic domain of MMP-14 (cdMMP-14); assay: summary sentence on the Examples; enzyme inhibition
[10] = molecular target: T1, catalytic domain of MMP-14 (cdMMP-14); assay: ELISA, Fab titrated on immobilised MMP-14 catalytic domain, anti-Fab-HRP
Procedure: as §1

[11] = molecular target: T1, catalytic domain of MMP-14 (cdMMP-14); assay: SPR (Biacore), KD from koff/kon
[12] = molecular target: catalytic domain of MMP-2 (human, UniProt P08253 115-449, limits assumed, biotinylated (Sulfo-NHS-LC-Biotin)); assay: ELISA, purified Fab at 50, 100, 250 and 500 nM on immobilised MMP catalytic domain, anti-Fab-HRP, OD450
[13] = molecular target: T2, catalytic domain of MMP-9 (cdMMP-9) (human, UniProt P14780 107-443, limits assumed); assay: as above
T2 sequence: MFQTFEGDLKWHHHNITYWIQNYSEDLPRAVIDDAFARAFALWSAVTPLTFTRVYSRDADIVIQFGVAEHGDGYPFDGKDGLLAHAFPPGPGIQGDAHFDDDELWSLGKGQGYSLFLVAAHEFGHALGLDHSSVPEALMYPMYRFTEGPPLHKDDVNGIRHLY

[14] = molecular target: T1, catalytic domain of MMP-14 (cdMMP-14); assay: ELISA, Fab titrated on immobilised biotin-cdMMP-14, anti-Fab-HRP
[15] = molecular target: MMP-14 catalytic domain mutant N231A (human, UniProt P50281 114-287, limits assumed); assay: cell-based or functional assay
[16] = molecular target: MMP-14 catalytic domain mutant F198A (human, UniProt P50281 114-287, limits assumed); assay: cell-based or functional assay
[17] = molecular target: MMP-14 catalytic domain mutant Y203A (human, UniProt P50281 114-287, limits assumed); assay: cell-based or functional assay
[18] = molecular target: MMP-14 catalytic domain mutant T190A (human, UniProt P50281 114-287, limits assumed); assay: cell-based or functional assay
[19] = molecular target: MMP-14 catalytic domain mutant F204A (human, UniProt P50281 114-287, limits assumed); assay: cell-based or functional assay
[20] = molecular target: B4; assay: cell-based or functional assay
[21] = molecular target: T2, catalytic domain of MMP-9 (cdMMP-9); assay: competitive ELISA: Fab R2C5 at its IC50 concentration pre-incubated with soluble cdMMP-9, then added to a plate coated with 100 nM cdMMP-14; anti-Fab-HRP
[22] = molecular target: T2, catalytic domain of MMP-9 (cdMMP-9); assay: ELISA on MMP-2, MMP-9 and MMP-14 catalytic domains
Fab 3A2 = molecular target: B1; assay: competitive ELISA: 10 nM Fab 3A2 pre-incubated with soluble MMP-14 mutant, then captured on immobilised wild-type MMP-14; anti-Fab-HRP
Procedure: as §1

[23] = molecular target: T2, catalytic domain of MMP-9 (cdMMP-9); assay: competitive ELISA: Fab R2C14 at its IC50 concentration pre-incubated with soluble cdMMP-9, then added to a plate coated with 100 nM cdMMP-14; anti-Fab-HRP

catalytic domain of MMP-2, sequence (P08253 other isoform, or with tags, fused parts or gaps limits assumed): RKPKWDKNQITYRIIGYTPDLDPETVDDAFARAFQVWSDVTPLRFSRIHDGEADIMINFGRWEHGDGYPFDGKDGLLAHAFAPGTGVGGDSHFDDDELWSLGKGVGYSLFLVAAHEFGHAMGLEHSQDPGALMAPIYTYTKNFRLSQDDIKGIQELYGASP

Binder: B1
Kd [1]: 9.17 nM
koff [1]: 0.00347 s⁻¹
kon [1]: 378000 M⁻¹ s⁻¹
binding result [2]: no binding (tested: 0-2,000 nM mutant)
Kd [3]: 3.64 nM
koff [3]: 0.00125 s⁻¹
kon [3]: 344000 M⁻¹ s⁻¹
IC50 by FRET Assay [4]: 9.7 nM
Kd [5]: 4.85 nM
Inhibition potency (FRET IC50) [6]: 9.7 nM
Kd [7]: 1.74 nM
koff [7]: 0.000667 s⁻¹
kon [7]: 383000 M⁻¹ s⁻¹
koff [8]: 0.00179 s⁻¹
kon [8]: 368000 M⁻¹ s⁻¹
Ki [9]: 10 nM
EC50 [10]: 3.8 nM
Kd [11]: 4.76 nM
binding result [12]: no binding (tested: 500 nM)
binding result [13]: no binding (tested: 500 nM)
EC50 [14]: 3.8 nM
inhibition (%) of peptide cleavage: 50 nM MMP-14 mutant, 5 uM Fab 3A2, 1 uM quenched fluorescent substrate [15]: 90%
inhibition (%) of peptide cleavage: 50 nM MMP-14 mutant, 5 uM Fab 3A2, 1 uM quenched fluorescent substrate [16]: 98%
inhibition (%) of peptide cleavage: 50 nM MMP-14 mutant, 5 uM Fab 3A2, 1 uM quenched fluorescent substrate [17]: 98%
inhibition (%) of peptide cleavage: 50 nM MMP-14 mutant, 5 uM Fab 3A2, 1 uM quenched fluorescent substrate [18]: 95%
inhibition (%) of peptide cleavage: 50 nM MMP-14 mutant, 5 uM Fab 3A2, 1 uM quenched fluorescent substrate [19]: 96%
inhibition (%) of peptide cleavage: 50 nM MMP-14 mutant, 5 uM Fab 3A2, 1 uM quenched fluorescent substrate [20]: 0%

Inhibition potency (FRET IC50) [6]: 50 nM
EC50 [14]: 375 nM
B2: Fab R2C5 (Fab, V domains shown)
VH: EVQLVESGGGLVQPGGSLRLSCAASGFNLSSYYMHWVRQAPGKGLEWVASIYPYSSYTSYADSVKGRFTISADTSKNTAYLQMNSLRAEDTAVYYCARIMKIKRNSLKFRGFVPLQMQYVMDYWGQGTLVTVSS
VL: DIQMTQSPSSLSASVGDRVTITCRASQSVSSAVAWYQQKPGKAPKLLIYSASSLYSGVPSRFSGSRSGTDFTLTISSLQPEDFATYYCQQSYGLFTFGQGTKVEIKR
binding result [21]: no binding (tested: about 4000 nM (log10(nM) about 3.6))

Selectivity over MMP-2/-9 (ratio of Fab concentrations giving the same ELISA signal, MMP-2/-9 against MMP-14) [22]: 9.6 fold
IC50 by FRET Assay [4]: 420 nM
EC50 [10]: 120 nM
B3: Fab 33D2 (Fab, V domains shown)
VH: EVQLVESGGGLVQPGGSLRLSCAASGFNLYYSSIHWVRQAPGKGLEWVAYISSYSGYTSYADSVKGRFTISADTSKNTAYLQMNSLRAEDTAVYYCARSKYGPASRQLASRTSWSGPRGKYGMDYWGQGTLVTVSS
VL: DIQMTQSPSSLSASVGDRVTITCRASQSVSSAVAWYQQKPGKAPKLLIYSASSLYSGVPSRFSGSRSGTDFTLTISSLQPEDFATYYCQQAYGSYLITFGQGTKVEIKR
notes: not shown: His tag at the C-terminus of the heavy chain

Binder: B4
binding result (Fab 3A2): no binding (tested: about 2000 nM (log10(nM) 3.3))

Inhibition potency (FRET IC50) [6]: 10 nM
EC50 [14]: 1200 nM
B5: Fab R2C14 (Fab, V domains shown)
VH: EVQLVESGGGLVQPGGSLRLSCAASGFNIYSSSIHWVRQAPGKGLEWVASIYSYSGYTYYADSVKGRFTISADTSKNTAYLQMNSLRAEDTAVYYCARVSNRYNRSSASIAGLQLFRPYGMDYWGQGTLVTVSS
VL: DIQMTQSPSSLSASVGDRVTITCRASQSVSSAVAWYQQKPGKAPKLLIYSASSLYSGVPSRFSGSRSGTDFTLTISSLQPEDFATYYCQQSSYSLITFGQGTKVEIKR
binding result [23]: no binding (tested: about 4000 nM (log10(nM) about 3.6))
